Among the targets are HLA-A*11:01; HLA-A*33:01; HLA-A*03:01; HLA-A*68:01; HLA-A*31:01.
Holding throughout (assay): IEDB peptide-MHC binding, purified MHC/competitive/radioactivity; filed as Kd, often an IC50 or EC50 that approximates it; ≥ and ≤ were set here for values at or beyond the usual limits of such assays
The mark [1] stands for this setting: source organism: Vaccinia virus WR.
Where [2] appears, read: source organism: Dengue virus 1 Nauru/West Pac/1974.
The mark [3] stands for this setting: source organism: Dengue virus 3 Sri Lanka/1266/2000.
The mark [4] stands for this setting: source organism: SARS coronavirus Tor2.
Where [5] appears, read: source organism: Lassa virus Josiah.
Where [6] appears, read: source organism: Dengue virus 2 Jamaica/1409/1983.
[7] abbreviates: source organism: Dengue virus 4 Philippines/H241/1956.
Setting [8] is: source organism: Mammarenavirus lassaense.
Setting [9] is: source organism: Dengue virus 3 Martinique/1243/1999.
Setting [10] is: source organism: Dengue virus 1 Brazil/97-11/1997.

As a reminder, the Kd is the free concentration of one partner at which half of the binding sites on the other are occupied at equilibrium, for simple one-to-one binding.

In the case of NTMCTEETK, the Kd in the assay with HLA-A*11:01 (setting [1]) was 27.9 nM; in the assay with HLA-A*33:01 (setting [1]) it was 15700 nM; with HLA-A*03:01 (setting [1]), at least 78000 nM; in the assay with HLA-A*68:01 (setting [1]), 12.5 nM; in the assay with HLA-A*31:01 (setting [1]), at least 77900 nM.
As for LITENKIWGR, the Kd with HLA-A*31:01 (setting [2]) was at least 21100 nM.
With FIRRKYLIY, the Kd in the assay with HLA-A*11:01 (setting [1]) was at least 26900 nM; in the assay with HLA-A*33:01 (setting [1]), at least 52400 nM; in the assay with HLA-A*03:01 (setting [1]), 1500 nM; with HLA-A*68:01 (setting [1]), at least 53500 nM; with HLA-A*31:01 (setting [1]), at least 77900 nM.
On to ETTHHAVSR, for which the Kd turned out to be 4.66 nM with HLA-A*33:01 (setting [3]) and 19 nM with HLA-A*68:01 (setting [3]).
For KSAGFPFNK, the Kd was found to be 3.88 nM with HLA-A*11:01 (setting [4]); 4890 nM in the assay with HLA-A*33:01 (setting [4]); 8.65 nM with HLA-A*03:01 (setting [4]); 69.5 nM with HLA-A*68:01 (setting [4]); 31.8 nM with HLA-A*31:01 (setting [4]).
For TAVAKCNEKH, the Kd in the assay with HLA-A*11:01 (setting [5]) was at least 69700 nM; with HLA-A*33:01 (setting [5]) it was at least 61800 nM; with HLA-A*03:01 (setting [5]), at least 70000 nM; with HLA-A*68:01 (setting [5]), at least 70100 nM; with HLA-A*31:01 (setting [5]), at least 40100 nM.
Take FIFSALDEK: the Kd with HLA-A*11:01 (setting [1]) was 65.1 nM; with HLA-A*33:01 (setting [1]) it was at least 66800 nM; with HLA-A*03:01 (setting [1]), 156 nM; in the assay with HLA-A*68:01 (setting [1]), 24.5 nM; with HLA-A*31:01 (setting [1]), at least 49200 nM.
For CVTQVLMMR, the Kd was 350 nM with HLA-A*33:01 (setting [6]) and 100 nM with HLA-A*68:01 (setting [6]).
As for MSAAIKDQK, the Kd with HLA-A*11:01 (setting [7]) worked out at 480 nM; with HLA-A*68:01 (setting [7]) it was 50.9 nM.
As to RIENEMKINR, the Kd with HLA-A*11:01 (setting [1]) came to 2570 nM; with HLA-A*33:01 (setting [1]), 10800 nM; in the assay with HLA-A*03:01 (setting [1]), 5560 nM; with HLA-A*68:01 (setting [1]), 803 nM; in the assay with HLA-A*31:01 (setting [1]), 183 nM.
For AITDNGPMPY the same measures were 340 nM, at least 49600 nM, 251 nM, at least 23500 nM and at least 60000 nM.
In the case of STQQNKLVIR, the Kd turned out to be 2240 nM in the assay with HLA-A*11:01 (setting [1]); 4470 nM with HLA-A*33:01 (setting [1]); 17900 nM in the assay with HLA-A*03:01 (setting [1]); 631 nM with HLA-A*68:01 (setting [1]); 154 nM in the assay with HLA-A*31:01 (setting [1]).
The matching figures for VLFSIFYKDY: 972 nM, 3090 nM, 668 nM, 1160 nM and 1200 nM.
SVANGVPVH: the Kd with HLA-A*11:01 (setting [8]) is 9780 nM; in the assay with HLA-A*33:01 (setting [8]), at least 77700 nM; in the assay with HLA-A*03:01 (setting [8]), 2270 nM; with HLA-A*68:01 (setting [8]) it was 8070 nM; with HLA-A*31:01 (setting [8]), at least 30300 nM.
As to VLARWGTFK, the Kd with HLA-A*11:01 (setting [9]) came out at 52.3 nM; in the assay with HLA-A*03:01 (setting [9]) it was 3.08 nM.
For AIMQVFFGY, the Kd was determined as 1.39 nM with HLA-A*11:01 (setting [4]); 1400 nM in the assay with HLA-A*33:01 (setting [4]); 0.695 nM with HLA-A*03:01 (setting [4]); 191 nM with HLA-A*68:01 (setting [4]); 452 nM with HLA-A*31:01 (setting [4]).
For the sequence RLQLSNGNR, in the assay with HLA-A*03:01 (source organism: Homo sapiens), the Kd turned out to be 407 nM.
As to KVTEVKGYTK, in the assay with HLA-A*11:01 (setting [10]), the Kd amounted to 212 nM.
On to HMFAGHLKCK, for which, in the assay with HLA-A*03:01 (setting [7]), the Kd is 7.4 nM.
With TIREFPRKDK, the Kd with HLA-A*11:01 (setting [1]) was 16200 nM; in the assay with HLA-A*33:01 (setting [1]) it was at least 40900 nM; with HLA-A*03:01 (setting [1]) it was 13100 nM; with HLA-A*68:01 (setting [1]) it was 7280 nM; in the assay with HLA-A*31:01 (setting [1]), 295 nM.
Turning to LMSAAIKDSK, the Kd with HLA-A*03:01 (setting [10]) worked out at 66.7 nM.
Regarding AVMDIISRK, the Kd in the assay with HLA-A*11:01 (setting [7]) amounted to 107 nM; with HLA-A*03:01 (setting [7]) it was 4.94 nM.
For the sequence TLFVWYFWQK, the figures for the Kd with HLA-A*11:01 (setting [10]) and with HLA-A*03:01 (setting [10]) were 54.8 nM and 24.6 nM, respectively.
With DYMPSMKRFR, the Kd with HLA-A*33:01 (setting [6]) turned out to be 1.97 nM; in the assay with HLA-A*31:01 (setting [6]), 43.5 nM.
As for MLSIINKRKK, the Kd in the assay with HLA-A*03:01 (setting [9]) is 524 nM.
In the case of MSAAIKDNR, the Kd turned out to be 14.4 nM with HLA-A*68:01 (setting [6]) and 8.82 nM in the assay with HLA-A*31:01 (setting [6]).
Consider KSIQKNTIFK, for which the Kd with HLA-A*11:01 (source organism: Mammarenavirus machupoense) amounted to 5.35 nM.
With RVIDLGCGR, in the assay with HLA-A*31:01 (setting [9]), the Kd amounted to 1.21 nM.
GIALGLMALK: the Kd with HLA-A*03:01 (setting [9]) came to 219 nM.
Turning to ASNAPSAAK, in the assay with HLA-A*11:01 (source organism: Homo sapiens), the Kd was determined as 14 nM.
Consider WYFWQKKKQR, for which, in the assay with HLA-A*33:01 (setting [10]), the Kd came out at 8.19 nM.
As to KVVDLGCGR, the Kd in the assay with HLA-A*31:01 (setting [6]) was determined as 1.29 nM.
Consider SQGAGWSLK, for which the Kd with HLA-A*11:01 (setting [6]) was found to be 77.7 nM.
For LALGFFLRK, the Kd with HLA-A*11:01 (setting [9]) turned out to be 9.58 nM; with HLA-A*03:01 (setting [9]), 3.33 nM.
Consider VSTGSQLAK, for which the Kd worked out at 332 nM with HLA-A*11:01 (setting [10]) and 127 nM in the assay with HLA-A*03:01 (setting [10]).
As to FFLIVLLIPE, the Kd with HLA-A*33:01 (setting [6]) is 327 nM.
Take TTKRDLGMSK: the Kd with HLA-A*11:01 (setting [9]) came to 115 nM.
Turning to RNKRPRLCTR, the Kd with HLA-A*31:01 (setting [3]) worked out at 51.9 nM.
Take MLNILNRRR: the Kd with HLA-A*31:01 (setting [6]) came to 8.37 nM.
As for MISYGGGWR, in the assay with HLA-A*68:01 (setting [7]), the Kd worked out at 111 nM.
With YVFSGDPLK, the figures for the Kd in the assay with HLA-A*11:01 (setting [7]), in the assay with HLA-A*03:01 (setting [7]) and in the assay with HLA-A*68:01 (setting [7]) were 159 nM, 84.4 nM and 12.4 nM, respectively.
Regarding GSQLAKRFSK, the Kd with HLA-A*11:01 (setting [10]) was determined as 108 nM.
For the sequence YQNKVVRVQR, in the assay with HLA-A*31:01 (setting [6]), the Kd is at least 36700 nM.
Consider ALMSIISTFH, for which the Kd with HLA-A*33:01 (setting [5]) is 3610 nM; with HLA-A*03:01 (setting [5]), 617 nM.
For the sequence EINKNPKYK, the Kd with HLA-A*03:01 (source organism: Homo sapiens) is 753 nM.
On to VSTVSQLAK, for which, in the assay with HLA-A*11:01 (setting [2]), the Kd was determined as 248 nM.

For the origin of these results see the Immune Epitope Database (IEDB).
